Test results: patent US7375080B1, “Immobilized lactoferrin (Im-LF) antimicrobial agents and uses thereof” (priority 1999, dated 2008)
Values joined by “and” are separate entries in the source; they are usually repeats but may differ in a detail not shown here. Identical values can stand only once.

How the values were obtained:
[1] = system: E. coli serotype O157:H7 (strain ATCC43895); type: cell-based
[2] = system: E. coli O157:H7 strain ATCC43895; assay: Microbial adhesion assay: detachment of 3H-thymidine labeled bacteria from beef tissue by wash; type: cell-based

B1: lactoferrin (protein, UniProt P24627 20-708, looked up)
Lactotransferrin: APRKNVRWCTISQPEWFKCRRWQWRMKKLGAPSITCVRRAFALECIRAIAEKKADAVTLDGGMVFEAGRDPYKLRPVAAEIYGTKESPQTHYYAVAVVKKGSNFQLDQLQGRKSCHTGLGRSAGWIIPMGILRPYLSWTESLEPLQGAVAKFFSASCVPCIDRQAYPNLCQLCKGEGENQCACSSREPYFGYSGAFKCLQDGAGDVAFVKETTVFENLPEKADRDQYELLCLNNSRAPVDAFKECHLAQVPSHAVVARSVDGKEDLIWKLLSKAQEKFGKNKSRSFQLFGSPPGQRDLLFKDSALGFLRIPSKVDSALYLGSRYLTTLKNLRETAEEVKARYTRVVWCAVGPEEQKKCQQWSQQSGQNVTCATASTTDDCIVLVLKGEADALNLDGGYIYTAGKCGLVPVLAENRKSSKHSSLDCVLRPTEGYLAVAVVKKANEGLTWNSLKDKKSCHTAVDRTAGWNIPMGLIVNQTGSCAFDEFFSQSCAPGADPKSRLCALCAGDDQGLDKCVPNSKEKYYGYTGAFRCLAEDVGDVAFVKNDTVWENTNGESTADWAKNLNREDFRLLCLDGTRKPVTEAQSCHLAVAPNHAVVSRSDRAAHVKQVLLHQQALFGKNGKNCPDKFCLFKSETKNLLFNDNTECLAKLGGRPTYEEYLGTEYVTAIANLKKCSTSPLLEACAFLTR
With B1 the “GROWTH (%)” value [1] was 36%, the “effect on growth of the E. coli” value [1] was “reduced the growth” and the “% BACTERIAL CELLS DETACHED IN 1-MINUTE” value [2] was 90% and 85% and 78%. The “bacterial detachment” value [2] was “effective bacterial detachment”.
